Like-named read-outs stand apart in the source and are kept apart here.
T1: PALB2 (purified from baculovirus-infected Sf9 cells as GST-PALB2-His) (human, UniProt Q86YC2 1-1186)
T1 sequence (looked up): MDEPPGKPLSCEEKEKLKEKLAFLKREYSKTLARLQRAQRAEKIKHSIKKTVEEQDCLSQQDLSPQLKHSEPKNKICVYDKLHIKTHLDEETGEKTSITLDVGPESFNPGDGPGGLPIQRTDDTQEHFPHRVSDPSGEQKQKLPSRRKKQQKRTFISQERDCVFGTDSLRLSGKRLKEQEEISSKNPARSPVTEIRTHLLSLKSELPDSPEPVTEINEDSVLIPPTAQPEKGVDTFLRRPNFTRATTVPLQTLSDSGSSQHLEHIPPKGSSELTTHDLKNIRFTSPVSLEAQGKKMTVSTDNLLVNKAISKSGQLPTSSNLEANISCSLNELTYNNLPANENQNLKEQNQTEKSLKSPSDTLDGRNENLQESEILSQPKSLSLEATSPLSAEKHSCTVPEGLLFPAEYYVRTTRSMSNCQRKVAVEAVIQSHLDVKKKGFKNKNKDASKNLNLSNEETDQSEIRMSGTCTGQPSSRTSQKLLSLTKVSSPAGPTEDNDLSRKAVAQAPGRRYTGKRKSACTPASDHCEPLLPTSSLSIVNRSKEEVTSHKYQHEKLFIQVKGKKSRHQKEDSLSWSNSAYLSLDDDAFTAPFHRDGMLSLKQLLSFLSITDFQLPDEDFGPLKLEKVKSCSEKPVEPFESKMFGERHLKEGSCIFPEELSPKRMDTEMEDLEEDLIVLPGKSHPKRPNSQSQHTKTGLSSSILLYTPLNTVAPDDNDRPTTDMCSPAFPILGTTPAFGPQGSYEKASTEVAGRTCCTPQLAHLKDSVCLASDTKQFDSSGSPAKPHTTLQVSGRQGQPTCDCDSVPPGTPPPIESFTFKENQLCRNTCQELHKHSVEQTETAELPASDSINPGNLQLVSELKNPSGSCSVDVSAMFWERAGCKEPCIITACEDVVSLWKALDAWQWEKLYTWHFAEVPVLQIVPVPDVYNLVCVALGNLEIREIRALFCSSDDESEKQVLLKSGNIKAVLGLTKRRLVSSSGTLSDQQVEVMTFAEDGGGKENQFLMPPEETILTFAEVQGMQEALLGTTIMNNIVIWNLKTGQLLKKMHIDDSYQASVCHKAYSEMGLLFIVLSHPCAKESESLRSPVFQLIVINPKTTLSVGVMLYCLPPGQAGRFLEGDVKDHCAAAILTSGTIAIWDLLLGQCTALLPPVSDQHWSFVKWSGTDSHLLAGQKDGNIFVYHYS

T2: Human RAD51 (purified) (human, UniProt Q06609 1-339)
T2 sequence (looked up): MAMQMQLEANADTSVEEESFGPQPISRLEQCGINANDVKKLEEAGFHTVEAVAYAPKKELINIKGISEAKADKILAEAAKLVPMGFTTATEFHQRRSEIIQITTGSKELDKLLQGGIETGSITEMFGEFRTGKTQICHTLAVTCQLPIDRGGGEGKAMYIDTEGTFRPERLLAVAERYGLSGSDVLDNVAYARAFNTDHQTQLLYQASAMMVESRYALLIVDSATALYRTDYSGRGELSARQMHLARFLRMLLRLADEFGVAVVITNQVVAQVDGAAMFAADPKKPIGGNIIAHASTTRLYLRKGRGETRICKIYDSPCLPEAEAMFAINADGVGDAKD

B1: GST-RAD51 truncation 3 (R51T3, amino acids 184-257) (domain or fragment, human, UniProt Q06609 184-257, looked up)
chain: DVLDNVAYARAFNTDHQTQLLYQASAMMVESRYALLIVDSATALYRTDYSGRGELSARQMHLARFLRMLLRLAD
B2: BRC3/4-GST polypeptide (BRC3 and BRC4 region of BRCA2, amino acids 1409-1596) (domain or fragment, human, UniProt P51587 1409-1596, looked up)
chain: LTATKTEQNIKDFETSDTFFQTASGKNISVAKESFNKIVNFFDQKPEELHNFSLNSELHSDIRKNKMDILSYEETDIVKHKILKESVPVGTGNQLVTFQGQPERDEKIKEPTLLGFHTASGKKVKIAKESLDKVKNLFDEKEQGTSEITSFSHQWAKTLKYREACKDLELACETIEITAAPKCKEMQN
B3: GST-PALB2 truncation 1 (P2T1, amino acids 1-200) (domain or fragment, human, UniProt Q86YC2 1-200, looked up)
chain: MDEPPGKPLSCEEKEKLKEKLAFLKREYSKTLARLQRAQRAEKIKHSIKKTVEEQDCLSQQDLSPQLKHSEPKNKICVYDKLHIKTHLDEETGEKTSITLDVGPESFNPGDGPGGLPIQRTDDTQEHFPHRVSDPSGEQKQKLPSRRKKQQKRTFISQERDCVFGTDSLRLSGKRLKEQEEISSKNPARSPVTEIRTHLL
B4: GST-PALB2 truncation 5 (P2T5, amino acids 853-1186) (domain or fragment, human, UniProt Q86YC2 853-1186, looked up)
chain: GNLQLVSELKNPSGSCSVDVSAMFWERAGCKEPCIITACEDVVSLWKALDAWQWEKLYTWHFAEVPVLQIVPVPDVYNLVCVALGNLEIREIRALFCSSDDESEKQVLLKSGNIKAVLGLTKRRLVSSSGTLSDQQVEVMTFAEDGGGKENQFLMPPEETILTFAEVQGMQEALLGTTIMNNIVIWNLKTGQLLKKMHIDDSYQASVCHKAYSEMGLLFIVLSHPCAKESESLRSPVFQLIVINPKTTLSVGVMLYCLPPGQAGRFLEGDVKDHCAAAILTSGTIAIWDLLLGQCTALLPPVSDQHWSFVKWSGTDSHLLAGQKDGNIFVYHYS

Tests used:
[1] = target: B4; assay: co-IP
[2] = target: B3; assay: co-IP
PALB2 (purified from …) [3] = target: T1, PALB2 (purified from …); assay: co-IP
PALB2 (purified from …) [4] = target: T1, PALB2 (purified from …); assay: co-IP; remark: listed apart in the source
Human RAD51 (purified) = target: T2, Human RAD51 (purified); assay: pull-down

Binder: B1
binding result [1]: binds | binding result [2]: binds | binding result (PALB2 (purified from …) [3]): binds

Binder: B2
binding result (PALB2 (purified from …) [4]): binds

Binder: B3
binding result (Human RAD51 (purified)): binds

Binder: B4
binding result (Human RAD51 (purified)): binds

— article PMC4094107 (Nature structural & molecular biology, 2010)
